Test: label from the status in PepcDB records

Row | Sequence | protein production
1 | MSATVPSTASSRAPATTGFRSFLPLIGAVVIWGGNWPVMKMGLAHISPLWFAACRFGSAALISFLVLGALRRLRLPSRQEWPLVIGVGLLQMGAFTALALWALQYVPPGRASVIAYATAIWVIPLSSLVLGERPSRLQWLATAFSYAGIAVIVAPALGGWELHTVMGLTMLLGASLAWSVSIIQLRANRAIRLGADMIPWECAVATVPLIALAWLRDGAPDLGAMVDIWPVIAYTGPLATALTFIVVLNVTQSLPPAATSIAMLGVPVIGLVLSTVAWHEQISLDLSIGLALIGMGVVTTALAPRLGRLAAR | failed
2 | MDAAVIVPAYNEAESLARCLAPFESQPVELVVVVGGDDGTEQVARDTPFVDTVVRCDEGGAGIARNRGAAAATAPILLFTDADTVVPEDWVRLHLRHYADDEVIGVGGPARPLEDSLKHRVLFKLLSDYWYRVSWPLGFVQQPGFNCSFRADAFKAAGGFNEDIPFMEDTELSLRMKDYGRIVYDADSCVATSARREADEGYVSLFAKYVRGYANHYILRREFDADYFLEHHHHHH | failed
3 | MSDSATEYDKLFIGGKWTKPSTSDVIEVRCPATGEYVGKVPMAAAADVDAAVAAARAAFDNGPWPSTPPHERAAVIAAAVKMLAERKDLFTKLLAAETGQPPTIIETMHWMGSMGAMNYFAGAADKVTWTETRTGSYGQSIVSREPVGVVGAIVAWNVPLFLAVNKIAPALLAGCTIVLKPAAETPLTANALAEVFAEVGLPEGVLSVVPGGIETGQALTSNPDIDMFTFTGSSAVGREVGRRAAEMLKPCTLELGGKSAAIILEDVDLAAAIPMMVFSGVMNAGQGCVNQTRILAPRSRYDEIVAAVTNFVTALPVGPPSDPAAQIGPLISEKQRTRVEGYIAKGIEEGARLVCGGGRPEGLDNGFFIQPTVFADVDNKMTIAQEEIFGPVLAIIPYDTEEDAIAIANDSVYGLAGSVWTTDVPKGIKISQQIRTGTYGINWYAFDPGSPFGGYKNSGIGRENGPEGVEHFTQQKSVLLPMGYTVA | not failed
4 | MASPDGSGSESFRTRRRRNRARFALAAVLTFILVAVGVLALVFYELRPVSLKIAVGPGGGDDLKLVQALAQSFARDRAAVRLVPLVTGGATPSIEAFRDHKADLAVTRADLDLPADAQAVAVLRKNVVVLWAPSSAGKGKKSIKTITDLAGRRVGVIGRTPANVKLFDIILAESGVAPDKVQKEQFATGQLAEMARDPSLDAFLAVGPLDSKITGEAIAATAKARGEPRFLPVDVGDAIAKKYPIYDSEEIPGSIFSTQPARPEDKVDTVSVNHLIVARQSLSSVTVTKLTRQIFAARQQIAREMPLAGKIEAPDTEKDAALPAHRGAAAFIDGTDRTFMERNSDYIWGLVLLLSGLGSAGAWFRSYLTRDEREAGAKMRDRALAMVAKARKAETLEALDALQHEIDKILRDTLDCYDDGAIEDLEPFSLVLEQFHHAVMDRRAALSASGPGLIPVDPATLPAAHA | failed
5 | MARHLITSALPYINGIKHLGNMVGSMLPADVYSRYLRQRGHDVLYICATDEHGTPAELAAKERGLPVDEFCAQAHDAQKAVYDGFELAFDYFGRSSSEQNREITQHFARRLNENGFIEERAIRQVYSPADGRFLPDRYVEGTCPHCGYDKARGDQCENCTRVLDPTDLINPRSAISGSTDLEVRETKHLFLLQSKLQHEVEEWVARHEEEWPQLASSIARKWLNEGLHDRAITRDLDWGVPVPADTWPELAAEGKVFYVWFDAPIEYIGATKEWSDLDPENRDWKSWWYDADSGENPVRYTEFMAKDNVPFHTVMFPATELGVREPWKKVDYVKAFNWLTYYGGKFSTSQKRGVFTDHALEILPADYWRYFLIANAPESDDSSFTWEHFTATVNKDLADTLGNFVNRVLSFSKKRFGEEVPAGAPAGESETKLGEEIAALLAEYESHMETLQFRKAAAALRALWSAGNSYLEEKAPWLEIKTNPEGAALTLRTAMNLIHLYSVVSEPFIPASSKAMRSAFALSEDTATWVTQDEAKSLDSVPAGTPFTVPPVLFAKITDEDLESYKERFGGAPE | failed
6 | MSIESLWSSRFQQHIQNIITYFARMINGLLYSFIFISCVGAYYYAQFLKASPSKGISLIIITIVLTFIITRCPIRTFIQKPDAVYLLALEEKLTSYFKKSLLYNYIMQLFPLLFTFLILVPLAMQSLQLTVPFLCTIFIVLMITKAWNMYIHWMWRDSHEKNIWLIIRITCNALIIYMLFYSANVLILGGLLLLLAFLLLYTKKQPTKRIPWDYIIEQEEKMNVRFYQFASIFTDVPQLNKQVNKRKWLTNWIEPLLHKKRATFFYLHTLAFLRGNDYFGIYIRLRLIGAFALYFIPNIYVKGAIAYIVLYMISMQLRSLWKYFSGNIIVALYPIHTEERMKQFLHLIFILLSIQLIVFSSVILIATGQFLHILIIMIVGLLWIKFIIVPKTKQRISAF | failed
7 | MVVETIERSCEGSKRRHVNGGDIAVPCSGEECSNGDINVAPGVSAKRARVSREMTFEDIYGADALLNDDDDEDDDCDWEPVQAPMEFVKWCCVNCTMSNPGDMVHCCICGEHKESGILRHGYLASPFFKDTGLIEVEEKYGGSSSATSSTAVGFDERMLLHSEFEVKAQPHPERPDRLRAIAASLATAGVFPGRCLPINAREITKQELQMVHTSEHVDAVDTTSQLLYSYFTSDTYANEYSARAARLAAGLCADLATDIFTGRVKNGFALVRPPGHHAGVRHAMGFCLHNNAAVAALVAQAAGAKKVLIVDWDVHHGNGTQEIFEQNKSVLYISLHRHEGGNFYPGTGAADEVGSNGGEGYCVNVPWSCGGVGDKDYIFAFQHVVLPIASAFSPDFVIISAGFDAARGDPLGCCDVTPAGYSRMTQMLGDLCGGKMLVILEGGYNLRSISASATAVIKVLLGENPENELPIATTPSVAGLQTVLDVLNIQLEFWPSLAISYSKLLSELEARLIENKSEKSDEKEGCSGSDMVEMGTKEAFVQLSLGSYDFKIKVILESILPNPS | failed
8 | MTDTQNRVAMGYIKGVFGIKGWLKIAANTEYSDSLLDYPEWHLVKDGKTISVTLEAGKVVNGELQVKFEGINDRDLAFSLRGYTIEIPREAFAPTEEDEYYWTDLVGMTVVNKDHTVLGKVSNLMETGANDVLMIDGEHGQILIPFVSQYIETVDTGSKTITADWGLDYLEHHHHHH | not failed
9 | MERELGPWRLTFRVRGWLSDEVFGEISRYARYLGRDRGYGLFRIDPERLRGNGLTLWDAIASLEDLGVAVEEDLEALKRAAEEALRVVLELRGGWVYISSRVMLKPILEEEGLSLPYDREARAYRAPPIMYPRLREAFERRGLKVEDRVFPPSSRSLPRPVRFTGELRDYQEEALEAWRKAGGRGVIVLPTGAGKTVVAIAAVAWAGVWSLIVVYTRDHVRQWIDAFRRFTDAHSLVGAYYGEEKRLAPITVTTYQTAYRHIDRLAPLFPFLVFDEAHHIPADKFKRIASASPAPYRMGLSATIEREDGRHEEVYSLVGGVVYSSSPGELTRKGYLAPFVIRRVKVELEEEEKRLYEDLKRKYRILARGRSFEKILEDARRGDPTAIEAIRVNTRMKEIVQLSESKIRAVEKLVREELSRGSKVIVFTQYRRQAEEIARRTGALLLHGGLERRVREATLAKFRALKAGALVVTTVGDEGLDIPDANVGILVSGTGSRRQFIQRLGRLLRPGEGKRAVLYEVIARGTGEELQSRRRRGRG | failed
10 | MLIGEIMDLNLKNFLEDREEIIRDAKRKDEKSFKDFKKIVEEIKERENKDKIVCDFTEYNPLHKGHKYALEKGKEHGIFISVLPGPLERSGRGIPYFLNRYIRAEMAIRAGADIVVEGPPMGIMGSGQYMRCLIKMFYSLGAEIIPRGYIPEKTMEKVIDCINKGYHIQVKPYKIICIETGEILGEKLNIDNYVIASMSQMIYKLNREGLKFNPKFVFVKRLEGISGTKIREAIFSGKFEDIKNMLPKTTLSILKELYDNGKLNELILKRFEDRILETANEYDLYEYLPSNVAEILEKKRPFNNIEEIKNSLPYGFSRHFRERILSKLEARIPNETLSKYINNYPAKIKILAVKL | not failed
11 | MFVFIPLFTIFILLAGGYFAKRIGVLKQKQARTFLDFAIIFALPCLIFDKAYHLNFDFSLIIFIFIGLFSCILAAFFAILIGKVFHFSKVTLVSMFLLSCFGNTIFVGMPIVAGIFNDPQFSAEVIFYDALATTLPISLFGPFILSLGNGEKVSLLANVKKILSFPPFLALLFGFLCKLITLPEFIFSPIRLFGASATPVALFAIGLGLGFMAIKTSYKPTIVVIFTKMILAPLFFVFCLKIFNLELKDSTIVAIIESAAPTMTLAGAMVMKAKLDSNLAVSAVAFGVLFAFVSMPILIWTLL | failed
12 | METYDVLVVGGGPGGSTAARYAAKYGLKTLMIEKRPEIGSPVRCGEGLSKGILNEADIKADRSFIANEVKGARIYGPSEKRPIILQSEKAGNEVGYVLERDKFDKHLAALAAKAGADVWVKSPALGVIKENGKVAGAKIRHNNEIVDVRAKMVIAADGFESEFGRWAGLKSVILARNDIISALQYRMINVDVDPDYTDFYLGSIAPAGYIWVFPKGEGMANVGIGSSINWIHNRFELKNYLDRFIENHPGLKKGQDIQLVTGGVSVSKVKMPITMPGLMLVGDAARLIDPITGGGIANAIVSGMYAAQVTKEAIESNDYSPQMMQKYEKLIKERFERKHLRNWVAKEKLAMLSDDTLDKLVDIVSEQVLTTISVEAILKAIAEKYPEVVKELEDLI | not failed
13 | MAKQDVIELEGTVLDTLPNAMFKVELENGHEILAHVSGKIRMNYIRILPGDKVTVEMSPYDLTRGRITYRYK | failed
14 | MIIRIVQNIQRINKEGNAPLYISFYLGKEKVVIPCKLSVPTTKFDSKTGMLRGTNKEAKDINLIIERLKAKVNDILVKHRLKNLTLNKEAFMREYNNPSDFKSFHDFVASYMKTYSRRLEIGTFRHHKSCMRKFKEYCEGLQFHELTEDFLRDYLIYMKKTLCNADSTAQRNLSTIKIYVSAAIKKGYMENDPFKDFGVKRIKSNIDYLTEEELIKFISLYYDRRLPERLERTLGFFLFMCFTSLHISDARHVCLEQINNGILTYYRIKNRNCKPEAIKIPLSIPAFKIIEELQGKRKEGH | failed
15 | MATTTSAACPIFSLSLLGRFVLTGPDGAVSLPNKKLAGLLAFLACMAPDPQSREKLSTLLWGSYLDAQAKQNLRQALFKLRQILGQDALRSDGELVSLNAMVIACDVSQFEELVQDGSRDALSAAADLYRGRLADDISVGEECWSEWVAGERERLSELALGAMVTLGGHELSEGRAEQALRTGQRANALNNLREDSHRLIMRALSATGRNAEALKYYRDVVALLKRELSTEPDLATRSLAAELRSNHPQNAAPAAGEVAPEASPPPALVMHGERPSLVVLPFSNMSGDPEQDYFADGVTADIITALSRFRALVVIARGTSFALRDKGMTSQQIAQQLGVQYVLSGQIRKAGNRIRVSAELTHSGSEAQVWSDRYDRPLTDIFDLQDDVSSSVAAVVDPAVRSAEIERARRKPPTNLSAYDLYLRALHHLWGGTREDITKAIDLLRQSLSLDEARSPTLAALAWGLVMASPLGAHTSPDATTEALSLARRAVEQDGTDAFAHAVYGFTLFGPAGDNDQGRIHAVEAVRLNPSSAFAWGTLGMIDSMAGDYENAVTCLHRSLVLSPYDSMLHLWMTGLTASCFALGRHEDGIAWARKSVQHNPGNGTGHRMLAANLVAAGRLEEAREITRRRDATQKTTIRDLRAMRFFKQNDALERYLSAQQVAGVAD | failed
16 | MAEELLAPEVIADLKARAISQPLVEHIYTADPSAHVFNGKIYIYPSHDIEAGIPFNDNGDHFGMEDYHVISLDSPDSPAVDNGVALHVKDVAWAERQMWPPDAAHKNGKYYLYFPAKRANGIFQIGVAVGDSPIGPFKAEPEAIKGSYSIDPAVFEDNDGEYYMYYGGIWGGQLQNYRNNQYDANRGEPADNEPALGPIVARLTADMKEFAEAPREIQILDQDGKPLLAGDHDRRFFEASWVHKYNDQYYFSYSTGNTHFLCYATGDNPYGPFTYRGQILTPVIGWTTHHSIAEYQGQWYLFYHDCVLSKGITHLRSVKMAPLTHKADGSIETITPYRD | failed
17 | MGSSHHHHHHSSGLVPRGSHRSEFSSRSGYGEYVQQTLQPGMRVRMLDDYEEISAGDEGEFRQSNNGIPPVQVFWQSTGRTYWVHWHMLEILGPEEATEDKASAAVEKGAGATVLGTAFPS | not failed
